The text below walks through data of the supplement of paper PMC10567573.

B1: TRAF3IP2 (parent)
chain: YGHDYPRAAYQQVIQPALPGQPLP
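Note: lentivirally expressed fusions sorted by FACS into six bins by GFP to DsRed ratio, PSI derived from sequencing read proportions per bin multiplied by bin number.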

In this series the parent is B1. The experiment in a line: protein stability index of a GFP-peptide fusion (GPS, HEK-293T) (PSI 1-6); higher = more stable. As to conditions: c terminus: a fixed tail appended.
As to YGHDYGRAAYQQVIQPALPGQPLP [P6G], the protein stability index amounted to 3.41.
Under YGHDYERAAYQQVIQPALPGQPLP [P6E] stands 2.82; under YGHDYDRAAYQQVIQPALPGQPLP [P6D], 3.52.
Then YGHDYLRAAYQQVIQPALPGQPLP [P6L], with 1.73.
YGHDYCRAAYQQVIQPALPGQPLP [P6C]: the protein stability index worked out at 2.26.
As to YGHDYARAAYQQVIQPALPGQPLP [P6A], the protein stability index is 2.44.
For YGHDYKRAAYQQVIQPALPGQPLP [P6K], the protein stability index was found to be 2.9.
Take YGHDYHRAAYQQVIQPALPGQPLP [P6H]: the protein stability index stood at 1.93.
Turning to YGHDYIRAAYQQVIQPALPGQPLP [P6I], the protein stability index amounted to 1.69.
Regarding YGHDYFRAAYQQVIQPALPGQPLP [P6F], the protein stability index was 1.81.
In the case of YGHCYPRAAYQQVIQPALPGQPLP [D4C], the protein stability index was 1.8.
As to YGHLYPRAAYQQVIQPALPGQPLP [D4L], the protein stability index was determined as 1.73.
For YGHMYPRAAYQQVIQPALPGQPLP [D4M], the protein stability index was found to be 1.66.
Regarding YGHQYPRAAYQQVIQPALPGQPLP [D4Q], the protein stability index was 1.85.
Take YGHNYPRAAYQQVIQPALPGQPLP [D4N]: the protein stability index came to 2.42.
As for YGHHYPRAAYQQVIQPALPGQPLP [D4H], the protein stability index came out at 1.94.
YGHTYPRAAYQQVIQPALPGQPLP [D4T]: the protein stability index was 2.13.
Then YGHFYPRAAYQQVIQPALPGQPLP [D4F], with 1.56; and YGHWYPRAAYQQVIQPALPGQPLP [D4W], with 2.08; and YGHIYPRAAYQQVIQPALPGQPLP [D4I], with 2.1.
As for YGHPYPRAAYQQVIQPALPGQPLP [D4P], the protein stability index is 3.33.
Under YGHKYPRAAYQQVIQPALPGQPLP [D4K] stands 2.7.
In the case of YGHSYPRAAYQQVIQPALPGQPLP [D4S], the protein stability index turned out to be 2.07.
For YGHGYPRAAYQQVIQPALPGQPLP [D4G], the protein stability index is 2.05.
With YGHRYPRAAYQQVIQPALPGQPLP [D4R], the protein stability index came out at 2.21.
As to YGHYYPRAAYQQVIQPALPGQPLP [D4Y], the protein stability index worked out at 2.9.
With YGHEYPRAAYQQVIQPALPGQPLP [D4E], the protein stability index amounted to 1.81.
Consider YGHAYPRAAYQQVIQPALPGQPLP [D4A], for which the protein stability index was determined as 1.55.
On to YGHVYPRAAYQQVIQPALPGQPLP [D4V], for which the protein stability index worked out at 2.36.
Then YRHDYPRAAYQQVIQPALPGQPLP [G2R], with 3.52; and YYHDYPRAAYQQVIQPALPGQPLP [G2Y], with 2.38.
For YQHDYPRAAYQQVIQPALPGQPLP [G2Q], the protein stability index was 2.62.
Take YKHDYPRAAYQQVIQPALPGQPLP [G2K]: the protein stability index worked out at 3.69.
In the case of YPHDYPRAAYQQVIQPALPGQPLP [G2P], the protein stability index was 3.42.
Under YVHDYPRAAYQQVIQPALPGQPLP [G2V] stands 1.83.
Then YFHDYPRAAYQQVIQPALPGQPLP [G2F], with 3.36; and YNHDYPRAAYQQVIQPALPGQPLP [G2N], with 2.46; and YTHDYPRAAYQQVIQPALPGQPLP [G2T], with 2.27.
Consider YWHDYPRAAYQQVIQPALPGQPLP [G2W], for which the protein stability index was 2.03.
YAHDYPRAAYQQVIQPALPGQPLP [G2A]: the protein stability index came to 2.41.
For the variant YCHDYPRAAYQQVIQPALPGQPLP [G2C], the protein stability index was determined as 1.67.
Then YHHDYPRAAYQQVIQPALPGQPLP [G2H], with 2.46.
Turning to YMHDYPRAAYQQVIQPALPGQPLP [G2M], the protein stability index worked out at 2.15.
Under YIHDYPRAAYQQVIQPALPGQPLP [G2I] stands 1.97.
In the case of YLHDYPRAAYQQVIQPALPGQPLP [G2L], the protein stability index amounted to 2.6.
Consider YDHDYPRAAYQQVIQPALPGQPLP [G2D], for which the protein stability index was found to be 3.43.
In the case of YEHDYPRAAYQQVIQPALPGQPLP [G2E], the protein stability index amounted to 3.78.
In the case of YSHDYPRAAYQQVIQPALPGQPLP [G2S], the protein stability index is 2.56.
For the variant YGEDYPRAAYQQVIQPALPGQPLP [H3E], the protein stability index was 2.5.
Under YGYDYPRAAYQQVIQPALPGQPLP [H3Y] stands 1.74.
On to YGCDYPRAAYQQVIQPALPGQPLP [H3C], for which the protein stability index is 1.86.
YGGDYPRAAYQQVIQPALPGQPLP [H3G]: the protein stability index worked out at 4.19.
For the variant YGWDYPRAAYQQVIQPALPGQPLP [H3W], the protein stability index came out at 1.69.
With YGKDYPRAAYQQVIQPALPGQPLP [H3K], the protein stability index worked out at 2.5.
With YGADYPRAAYQQVIQPALPGQPLP [H3A], the protein stability index is 2.05.
Consider YGQDYPRAAYQQVIQPALPGQPLP [H3Q], for which the protein stability index worked out at 2.04.
With YGSDYPRAAYQQVIQPALPGQPLP [H3S], the protein stability index stood at 2.2.
Then YGTDYPRAAYQQVIQPALPGQPLP [H3T], with 1.73; and YGMDYPRAAYQQVIQPALPGQPLP [H3M], with 1.77.
Turning to YGFDYPRAAYQQVIQPALPGQPLP [H3F], the protein stability index was 2.08.
YGPDYPRAAYQQVIQPALPGQPLP [H3P]: the protein stability index is 4.18.
Take YGRDYPRAAYQQVIQPALPGQPLP [H3R]: the protein stability index turned out to be 2.19.
Then YGNDYPRAAYQQVIQPALPGQPLP [H3N], with 1.83.
As for YGIDYPRAAYQQVIQPALPGQPLP [H3I], the protein stability index came to 1.83.
Consider YGDDYPRAAYQQVIQPALPGQPLP [H3D], for which the protein stability index was determined as 2.02.
As to YGVDYPRAAYQQVIQPALPGQPLP [H3V], the protein stability index stood at 2.4.
On to YGLDYPRAAYQQVIQPALPGQPLP [H3L], for which the protein stability index was 1.86.
Take YGHDCPRAAYQQVIQPALPGQPLP [Y5C]: the protein stability index was found to be 3.5.
For the variant YGHDQPRAAYQQVIQPALPGQPLP [Y5Q], the protein stability index worked out at 3.83.
As to YGHDRPRAAYQQVIQPALPGQPLP [Y5R], the protein stability index worked out at 3.49.
For the variant YGHDIPRAAYQQVIQPALPGQPLP [Y5I], the protein stability index was 3.43.
Regarding YGHDFPRAAYQQVIQPALPGQPLP [Y5F], the protein stability index is 2.52.
Turning to YGHDMPRAAYQQVIQPALPGQPLP [Y5M], the protein stability index is 3.27.
Consider YGHDWPRAAYQQVIQPALPGQPLP [Y5W], for which the protein stability index was 3.66.
Under YGHDPPRAAYQQVIQPALPGQPLP [Y5P] stands 3.99; under YGHDEPRAAYQQVIQPALPGQPLP [Y5E], 3.88; under YGHDSPRAAYQQVIQPALPGQPLP [Y5S], 4.1.
Consider YGHDTPRAAYQQVIQPALPGQPLP [Y5T], for which the protein stability index was 3.79.
For YGHDLPRAAYQQVIQPALPGQPLP [Y5L], the protein stability index was found to be 3.58.
In the case of YGHDVPRAAYQQVIQPALPGQPLP [Y5V], the protein stability index came out at 3.46.
Under YGHDNPRAAYQQVIQPALPGQPLP [Y5N] stands 3.73; under YGHDKPRAAYQQVIQPALPGQPLP [Y5K], 3.86; under YGHDHPRAAYQQVIQPALPGQPLP [Y5H], 3.73.
For YGHDGPRAAYQQVIQPALPGQPLP [Y5G], the protein stability index stood at 3.78.
For YGHDAPRAAYQQVIQPALPGQPLP [Y5A], the protein stability index was determined as 4.22.
For the variant YGHDDPRAAYQQVIQPALPGQPLP [Y5D], the protein stability index came to 4.01.
With CGHDYPRAAYQQVIQPALPGQPLP [Y1C], the protein stability index worked out at 2.52.
As for WGHDYPRAAYQQVIQPALPGQPLP [Y1W], the protein stability index is 2.68.
For LGHDYPRAAYQQVIQPALPGQPLP [Y1L], the protein stability index worked out at 3.95.
Consider SGHDYPRAAYQQVIQPALPGQPLP [Y1S], for which the protein stability index came out at 3.75.
For the variant KGHDYPRAAYQQVIQPALPGQPLP [Y1K], the protein stability index was found to be 3.79.
For the variant MGHDYPRAAYQQVIQPALPGQPLP [Y1M], the protein stability index turned out to be 3.31.
Consider VGHDYPRAAYQQVIQPALPGQPLP [Y1V], for which the protein stability index turned out to be 4.01.
Then GGHDYPRAAYQQVIQPALPGQPLP [Y1G], with 3.63.
